The results in this text go back to publication PMC9585320 (Frontiers in Molecular Biosciences, 2022).

For orientation: Kd means a measure of binding affinity in units of concentration. The low end stands for a tighter complex, the high end for a looser complex.

Assay [1] has as its target T1, MazF9 toxin, (His)6MazF(FLAG)3 (Mycobacterium tuberculosis, UniProt P71650 1-118).
T1 chain: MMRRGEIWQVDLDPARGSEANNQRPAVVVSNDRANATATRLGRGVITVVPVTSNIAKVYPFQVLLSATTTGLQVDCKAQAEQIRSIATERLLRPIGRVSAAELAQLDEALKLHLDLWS
The assay is described as follows: MST.

Assay [2] concerns the target MazF6 library. Kind of assay: flow cytometry on cells. For orientation: In flow cytometry, cells or beads pass a laser one at a time.

The molecule LEDDYANAWQEWSAAGDTDAWEQTVGDGVGDAPR [C-terminal MazE9 peptide (residues 43-76)] gave a dissociation constant (Kd) in assay [1] of 5.2 nM.

B1: MazE6 antitoxin, full length, purified (natural protein)
chain: MKTAISLPDETFDRVSRRASELGMSRSEFFTKAAQRYLHELDAQLLTGQIDRALESIHGTDEAEALAVANAYRVLETMDDEW
In turn, B1 had a Kd in assay [2] of 0.13 nM.

Take RLAERDAEILATNTSATGDLDTLAGHCARTALDID [C-terminal MazE3 peptide (residues 72-106)]: in assay [1], the Kd is 173 nM.
